According to the nanobody polyreactivity screen of Harvey et al. (2022):

Assay: yeast display, Sf9 membrane polyspecificity reagent, FACS + sequencing; frameworks hold sequencing errors
Outline: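 Polyreactivity labels are assigned by the sorting gate from which each nanobody was recovered. The gates were low and high (top ~1%), set on anti-HA fluorescence for expression and streptavidin fluorescence for reagent binding. Before sorting, galactose-induced (36–48 hours) yeast display cells were stained for 1 hour at 4 °C with 10% biotinylated, detergent-solubilized Sf9 membrane reagent.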

| Sequence | polyreactivity (PSR sort gate) |
| --- | --- |
| QVQLVESGGGLVQAGGSLRLSCAASGFTFGANVMGWYRQAPGKERELVAAINTRGSRTYYADSVKGRFTISRDIAKNTVYLQMNSLKPEDTAVYYCAAALRKEYDYWGQGTQVTVSS | high polyreactivity |
| QVQLVESGGGLVQAGGSLRLSCAASGIIFYRYALGWYRQAPRTERELVAAISSSGTNTYYADSVKGRFTISRDNAKNTVYLQMNSLKPEDTAVYYCNADTLADRSTYDYWGQGTQVNVSS | low polyreactivity |
| QVQLVESGGGLVLAGGSLRLSCAASGSIFQPNAMGWYRQAPGKERELVASIRGRGGDTYYADSVKGRFTISRDNAKNSVYLQMNSLKPEDTAVDYCAADYRWGQGTQVTVSS | low polyreactivity |
| QVQLVESGGGIVQAGGSLRLSCAASGRIFWWYAMGMYRQAPGKERELVAVIDDSGGITYYADSVKGRFTISRDNAKNTVYLQMNSLKPEDTAVYYCARNVNAQKVLGGFDSWGQGTQVTVSS | low polyreactivity |
| QVQLVESGGGLVQAGGSLRLSCAASGSIFDFYAMGWYRQAPGKERELVAAINSGGRTYADSVKGRFTISRDNAKNTVYLQMNSLKPEDTAVYYCAAEYQYLSVEVTDIWYLTKYDYWGQGTQVTVSS | low polyreactivity |
| QVQLVESGGGIVQAGGSLRLSCPASGIIFYLNPMGWSRQAPGKERELVAAITRGGSTYYADSVKGRFTISRDNEKNTVYLQMNSLKPEDTAVYYWAAKHGPGYRRWYDYWGQGTQVTVSS | high polyreactivity |
| QVQLVESGGGLVQAGGSLRLSCAASGLIFSRYTMGWYRQAPGKERELVAAISLGGGRTYYADSVKGRFTISRDNAKNTVYLQMNSLKPEDTAVYYCAATRYYSSDYWGQGTQVTVSS | low polyreactivity |
| QVQLVESGGGLVQAGGSLRLSCAASGRTFWPYAMGWYRQAPGKERELVAAITSDGSTTYADSVTGRFTISRDNAKNTVYLQMNSLTPEDTAVYYCAAYGYYYDQTIPMDYWGQGTQVTVSS | low polyreactivity |
| QVQLVESGGGLVQAGGRLRLSCAPSGNIFRYYVMGWYRPAPGKEREFLAAITSSGGSTYYADSVKGRFTISRDNAKNTVYLKINSLKPEDTEVYYCAKDYWDPGWAEYDYWGQGTQVTVSS | low polyreactivity |
| QVQLVESGGGLVQAGGSLRLSCAASGRIFGYYAMGWYRQAPGKERELVAAISDGGSTDYADSVKGRFTISRDNAKNTVYLQMNSLKPEDTAVYYCNADRLYLYNVEYDYWGQGTQVTVSS | low polyreactivity |
| QVQLVESGGGLVQAGGRLRLSCAASGRIFPVNAMGWYRQAPGKERELVAGITWSGDGSTYYADSVKGRFTISRDNAKNTVYLQMNSLKPEDTAVYYCAARLNLQGRYDYSGQGTQVTVSS | low polyreactivity |
| QVQLVESGGGLVQAGGSLRLSCAASGSTFWSYTMGWYRQAPGKERELVAAIRFSGGSTYYADSVKGRFTISRDNAKNTVYLQMNSLKPEDTAVYYCAAGYYRRPYEYWGQGTQVTVSS | low polyreactivity |
| QVQLVESGGGLVQAGGSLRLSCAASGIIFGVYAMGWYRQAPGQERELVAAIDGNGSSTYYADSVKGRFTISRDNAKNTVYLQMNSLKPEDTAVYYCAAGYWSYLYYWYDFDYWGQGTQVTVSS | low polyreactivity |
| QVQLVESGGGLVQAGGSLRLSCAASGRIFSRNAMGWYRQAPGKERDLVAAITWRGGSTNYADSVKGRFTISRDNAKNTVYLQMNSLKPEDTAVYYCAARISRYPQDDSDYWGQGTQVTVSS | high polyreactivity |
| QVQLVESGGGLVQAGGSLRLSCAASGFIFRYYAMGWYRQAAGTERELVAAISGGGSSTYYADSVKGRFTISRDNAKNTVYLQMNSLKPEDTAVYYSTARYYYPAIKYDYCGQGTQVTVSS | low polyreactivity |
| QVHLVESGGGLVQAGGSHRLSCASSGFIFYFYTMGWYRQAPGKERELVAGITWLDGSTYYADSVKGRFTISRDNAKNTVYLQMNSLKPEDTAVYYCAVDYDLVVSPYYYWGQGTQVTVSS | low polyreactivity |
| QVQLVESGGGLVQAGGSLRLSCAASGITFFRYAMGWYRQAPGKERELVAAITTSGSSTFYADSVKGRFTISRDNAKNTVYLQMNSLTPEDTAVYYCATDYERYTWVGYLVTYYYWGQGTQVTVSS | high polyreactivity |
| QDQLVESGGGLVQAGGSLRLSCAASGFTFVINDMGWYRQAPGKERELVADITSGGDTYYADSVKGRFTISRDNAKNTVYLQMNSLKPEDTAVYYCNTDTYFPLYDYWGQGTQVTVSS | low polyreactivity |
| QVQLVESGGGLVQAGGSLRLSCAASGSIFGGNAMGWYRPAPGKERELVAGISTSGGSTYYADSVKGRFTISRDNAKNTVYLQMNSLKPEDTAVYYCARGLGTYPQYWWFGTPGLDYWGQGTQVTVSS | low polyreactivity |
| QVQLVESGGGLVQAGGSLRLSCAASGFIIYSYAMGWYRQAPGKERELVAVISSRGGTTYYADSVKGRFTISRDNAKNTVYLQMNSLKPEDTAVYYCARDDYGTLVKLYVRCFNYWGQGTQVTVSS | low polyreactivity |
| QVQLVESGGGLVQAGGSLRLSCADSGRTFGPNAMGWYRQAPGKERELVAAITGGGSTYYADSVKGRFTISRDNAKNTVYLQMNSLKPEDTAVYYCAAVWTYWYYGDDYWGQGTQVTVSS | low polyreactivity |
| QVQLVESGGGLVQAGGSLRLSCAASGRTFPGNAMGWYRQAPGKERELVAAISSRGGSTYYADSVKGRFTISRDNAKYTVYFQMNSLKPEDTALYYCARRYLPYGGYYYWGQGTQVTVSS | high polyreactivity |

| Sequence | polyreactivity (PSR sort gate) |
| --- | --- |
| QVQLVESGGGLVQAGGSLRLSCAASGSTFRYNAMGWYRQAPGKERELVASINRGGGGTYYADSVKGRFTISRDNAKKTVYLQMNSLKPEDTAVYYCAKARFTRGTWFYYWGQGTQVTVSS | high polyreactivity |
| QVQLVESGGGLVQAGGSLRLSCAASGRIFVTYVMGWYRQAPGKERELVAAISRRGGTTYYADSVKGRFTISRDNAKNTVYLQMNSLKPEDTAVYYCNVARDYAVESGYWGQGTQVTVSS | high polyreactivity |
| QVQLVESGGGLVQAGGSLRLSCAASGRIFYINAMGWYRQAPGTERELVAAITEGGVSTYYADSVKGRFTSSRDNAKNTVYLQMNSLKPEDTAVYYCNTTGGPDGIVIYEYWGQGTQVTVSS | low polyreactivity |
| QVQLVESGGGLVQAGGSLRLSCAASGGTFYVYDMGWYRQTPGKEREFVADINFSTGITYYADSVKGRFTISRDNAKNTVYLQMNSLKPEDTAVYYCNADTAFYVYWYWIYDYWGQGTQVTVSS | high polyreactivity |
| QVQLVESGGGLVQAGGSLRLSCAASGSTFYIYGMGWYRQAPGKERELVAAISQRDGSTYYADSEKGRFTSSRDNAKNTVYLQMNSLKPEDTAVYYCNAGLWYSSYDSDYWGQGTQVTVSS | low polyreactivity |
| QVHLVESGGGLVQAGGILRLRSAASGSTVYGYAMGWYRQAPGKERELVAAITRSGGSTYYADSVKGRFTISRDNATNKVYLQMNSQKPEDTEFYYCNKYGYKGGDGYDYWGQRTQVTVSS | high polyreactivity |
| QVQLVESGGGLVQAGGSLRLSCAASGFTLLWNAMGWYRQAPGKERELVAAINKSGGSTYADSVKGRFTISRDNAKNTVYLQMNSLKPEDTAVYYCAAEVDYSYWPEYARKYYYWGQGTQVTVSS | low polyreactivity |
| QVQLVESGGGLVQAGGSLRLSCAASGSTFGYYAMGWYRQAPGKERELVAAIRWCGGSTYADSVKGRFTISRDNAKNTVYLQMNSLKPEDTEVYYCAQYRWYGSVLGGYWGQGTQVTVSS | high polyreactivity |
| QVQLVESVGGLVQAVGSLRLSCAASGNTFYRYAMGWYIQAPGKERELVAAITWRSTYYADSVKGRFTISRDNAKNTVYLQMNSLKPEDTAVYYCAVSVRPYVIYLYDYWGQGTQVTVSS | high polyreactivity |
| QVQHVESGGGLVQAGGSLRLSCAASGGTFLANAMGWYRQAPGKERELVAAISWRGGSTRYADSVKGRFTISRDNAKNTVYLQMNSLKPEDTAVYYCAARYLYFTGFYYWGQGTQVTVSS | high polyreactivity |
| QVQLVESGGGLVQAGGSLRLSCAASGSIFRYYAMGWYRQAPGKERELVASITRRGGSTYYADSVKGRFTISRDNAKNTVYLQMTSLKPEDTAVYYCAAHKTYVRDYYWGQGTQVTVSS | high polyreactivity |
| QVQLVESGGGLVQAGGSLRLSCAASGRTFGPYALGWYRQAPGKERELVATSSSNGASTYYADSVKGRFTISRDNAKNTVYLQMNSLKPEDTAVYYCAAEFHFWGYLYDYWGQGTQVTVSS | low polyreactivity |
| QVQLVESGGGLVQAGGSLRLSCAASGRIFKYYAMGWFRQAPGKERELVAAISSGSSTNYADSVKGRFTISRDTAKNTVYLQMNSLKPEDTAVYYCAAKYYRSKFDFWGQGTQVTVSS | high polyreactivity |
| QVQLVESGGGLVQAGGRLRLSCAASGSTFVPYAMGWSRQAPGKERELVAGITWSGGRTYYADSVKGRFTISRDNAKNTVYFQLNSLKPEDTAVYYCNVEHLVYKYDGYYSRYYRLYYWGQGTHVTVSS | low polyreactivity |
| QVQLVESGGGLVQAGGSLRLSCAASGFTFLSNDMGWYRQSPGKERELVAGINFSGDGTYYADSVKGRFTISRDNAKNPVYLQMNSLKPEDSAVYYCAAGWLPKYGYWGKGTQVTVSS | low polyreactivity |
| QVQLVESGGGLVQAGGSLRLSCAASGIIFPYYTMGWYRQAPGKERELVAAISTSGGSTYYADSVKGRFTISRDNAKNTVYLQMNSLKPEDTAVYFCAAELSYDYSHDYWGQGTQVTVSS | high polyreactivity |
| QVQLVESGGGLVQAGGSLRLSCAASGRIFYIYTMGWYRPAPGKEREFVAGINWNGGSTYYADSVKGRFTISRDNAKNTVYLQMNSLKPEDTAVYYCNADQYWDRYYYWGQGTQVTVSS | low polyreactivity |
| QVQLVESGGGLVQAGGSLRLSCAASGIIFGLYTMGWYRQAPGKERELVAAISDSGGRTYYADSVKGRFTISRDNAKNTVYLQMNSLKPEDTAVYYCAAEFWYVLEYNYWGQGTQVTVSS | high polyreactivity |
| QVQLVESGGGLVQAGGSLRISCAASGRIFRVNGMGWSRQEPGKESELVAAIRRSGGSTYYADSVKGRFTISRDYAKKSVYLQMNSLKPEDTAVYFCAAAVRQSSYTRYDSWGQGTQVTVSS | high polyreactivity |
| QVQLVESGGGLVQAGGSLRLSCAASGFIFDFYAMGWYRQAPGKERELVATINSSGTTNYADSVKGRFTISRDNAKNTVYLQMNSLKPEDTAVYYCATVEYLGHYTYDYWGQGTQVTVSS | low polyreactivity |
| QVQLVESGGGLVQAGGSLRLSCAASGYIFKYNTMGWYRQAPGKERELVASITWSGVRTYYADSVKGRFTISRDNAKNTVYLQMNSLKPEDTAVYYCNAAYRRSWDSDDYWGQGTQVTVSS | low polyreactivity |
